Here are results for 38 sequences from the supplement of paper PMC7877785.

± gives the uncertainty stated by the source.

The data set in a line: self-splicing fitness, log relative to wild type (ln ratio); higher = more splicing; Tetrahymena group I intron in knt gene, E. coli kanamycin selection, DiMSum; sequences stand for … in CUCUCU…GGAGGGAAAAGUUAUCAGGCAUGCACCUGGUAGCUAGUCUUUAAACCAAUAGAUUGCAUCGGUUUAAAAGGCAAGACCGUCAAAUUGCGGGAAAGGGGUCAACAGCCGUUCAGUACCAAGUCUCAGGGGAAACUUUGAGAUGGCCUUGCAAAGGGUAUGGUAAUAAGCUGACGGACAUGGUCCUAACCACGCAGCCAAGUCCUAAGUCAACAGAUCUUCUGUUGAUAUGGAUGCAGUUCACAGACUAAAUGUCGGUCGGGGAAGAUGUAUUCUUCUCAUAAGAUAUAGUCGGACCUCUCCUUAAUGGGAGCUAGCGGAUGAAGUGAUGCAACACUGGAGCCGCUGGGAACUAAUUUGUAUGCGAAAGUAUAUUGAUUAGUUUUGGAGUACUCGUGGUCG
The method in brief: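 The eight P1ex-region nucleotides of an intron in the knt kanamycin-resistance gene on pET-22b(+) were all randomised and the library put into E. coli BL21(DE3). Six replicate transformations were grown overnight at 37°C or 30°C on LB agar with or without 25 μg/mL kanamycin, together with 100 μg/mL carbenicillin, 50 μM IPTG and 0.2% rhamnose. Colonies were pooled and amplicon-sequenced on an Illumina HiSeq 2500. Fitness from DiMSum is the error-weighted combination of wild-type-normalised replicate fold changes, kanamycin over none.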

Turning to CGUAAGCAAUAUUACGUAAA, the “self-splicing fitness (ln)” value (30 °C) is -3.15 ± 0.24 and the “self-splicing fitness (ln)” value (37 °C) is -2.1 ± 0.22.
Turning to CGUAAGCAAUAUUACGUAAG, the “self-splicing fitness (ln)” value (30 °C) was -1.49 ± 0.1 and the “self-splicing fitness (ln)” value (37 °C) is -0.165 ± 0.092.
As to CGUAAGCAAUAUUACGUACC, the “self-splicing fitness (ln)” value by setting is: (30 °C) -1.94 ± 0.21; (37 °C) -1.76 ± 0.24.
For CGUAAGCAAUAUUACGUAUA, the “self-splicing fitness (ln)” value is, setting by setting: (30 °C) -2.48 ± 0.26; (37 °C) -2.21 ± 0.26.
For CGUAAGCAAUAUUACGUAUG the same measures were -2.17 ± 0.08 and -0.311 ± 0.072.
For CGUAAGCAAUAUUACGUCUA, the “self-splicing fitness (ln)” value is -2.78 ± 0.28 (30 °C) and -2.03 ± 0.18 (37 °C).
Take CGUAAGCAAUAUUACGUGAG: the “self-splicing fitness (ln)” value by setting is: (30 °C) -2.17 ± 0.11; (37 °C) -1.09 ± 0.092.
For CGUAAGCAAUAUUACGUGGU the same measures were -3.19 ± 0.13 and -2.72 ± 0.16.
Take CGUAAGCAAUAUUACGUUCC: the “self-splicing fitness (ln)” value (30 °C) is -2.63 ± 0.3.
For CGUCAGCAAUAUUACGAAUC, the “self-splicing fitness (ln)” value (30 °C) is -3.1 ± 0.27 and the “self-splicing fitness (ln)” value (37 °C) is -0.891 ± 0.33.
Turning to CGUCAGCAAUAUUACGACAU, the “self-splicing fitness (ln)” value is -0.647 ± 0.012 (30 °C) and -0.0443 ± 0.032 (37 °C).
Regarding CGUCAGCAAUAUUACGACGU, the “self-splicing fitness (ln)” value reads like this: (30 °C) -3.23 ± 0.17; (37 °C) -1.93 ± 0.14.
As for CGUCAGCAAUAUUACGAGAU, the “self-splicing fitness (ln)” value is -3.93 ± 0.21 (30 °C) and -2.65 ± 0.17 (37 °C).
As to CGUCAGCAAUAUUACGAGGG, the “self-splicing fitness (ln)” value is -3.93 ± 0.1 (30 °C) and -1.81 ± 0.099 (37 °C).
As to CGUCAGCAAUAUUACGAUCC, the “self-splicing fitness (ln)” value was -1.62 ± 0.086 (30 °C) and -0.418 ± 0.13 (37 °C).
The like results for CGUCAGCAAUAUUACGCCCC were, in that order, -0.652 ± 0.24 and -1.34 ± 0.3.
For CGUCAGCAAUAUUACGCGCG the same measures were -4.06 ± 0.39 and -2.19 ± 0.36.
CGUCAGCAAUAUUACGCGCU: the “self-splicing fitness (ln)” value was -0.602 ± 0.18 (30 °C) and -2.64 ± 0.32 (37 °C).
On to CGUCAGCAAUAUUACGCGUU, for which the “self-splicing fitness (ln)” value runs as follows: (30 °C) -2.71 ± 0.14; (37 °C) -2.01 ± 0.18.
For CGUCAGCAAUAUUACGCUCU, the “self-splicing fitness (ln)” value was -1.14 ± 0.12 (30 °C) and -0.257 ± 0.12 (37 °C).
Consider CGUCAGCAAUAUUACGGAGC, for which the “self-splicing fitness (ln)” value (30 °C) was -3.85 ± 0.42 and the “self-splicing fitness (ln)” value (37 °C) was -1.95 ± 0.26.
The like results for CGUCAGCAAUAUUACGGCUG were, in that order, -1.51 ± 0.12 and -1.24 ± 0.23.
For the sequence CGUCAGCAAUAUUACGGCUU, the “self-splicing fitness (ln)” value was -1.34 ± 0.11 (30 °C) and -0.493 ± 0.099 (37 °C).
In the case of CGUCAGCAAUAUUACGGGUG, the “self-splicing fitness (ln)” value (30 °C) was -1.9 ± 0.091 and the “self-splicing fitness (ln)” value (37 °C) was -0.977 ± 0.11.
CGUCAGCAAUAUUACGGUCA: the “self-splicing fitness (ln)” value by setting is: (30 °C) -0.717 ± 0.08; (37 °C) 0.201 ± 0.1.
For CGUCAGCAAUAUUACGGUCC the same measures were -1.34 ± 0.079 and -0.173 ± 0.1.
The like results for CGUCAGCAAUAUUACGUAAU were, in that order, -2.93 ± 0.17 and -1.2 ± 0.13.
Take CGUCAGCAAUAUUACGUCCC: the “self-splicing fitness (ln)” value is, setting by setting: (30 °C) -3.43 ± 0.31; (37 °C) -0.834 ± 0.22.
CGUCAGCAAUAUUACGUGUG: the “self-splicing fitness (ln)” value by setting is: (30 °C) -0.543 ± 0.059; (37 °C) -0.104 ± 0.068.
In the case of CGUCAGCAAUAUUACGUUCG, the “self-splicing fitness (ln)” value reads like this: (30 °C) -1.45 ± 0.068; (37 °C) -0.148 ± 0.096.
The like results for CGUGAGCAAUAUUACGACCC were, in that order, -1.76 ± 0.23 and -0.787 ± 0.16.
For CGUGAGCAAUAUUACGAGGA, the “self-splicing fitness (ln)” value by setting is: (30 °C) -3.04 ± 0.39; (37 °C) -1.65 ± 0.33.
On to CGUGAGCAAUAUUACGAUGA, for which the “self-splicing fitness (ln)” value (30 °C) was -3.64 ± 0.23 and the “self-splicing fitness (ln)” value (37 °C) is -2.04 ± 0.17.
For CGUGAGCAAUAUUACGAUGC the same measures were -0.111 ± 0.43 and -2 ± 0.48.
Regarding CGUGAGCAAUAUUACGCAGA, the “self-splicing fitness (ln)” value (37 °C) was -1.49 ± 0.38.
In the case of CGUGAGCAAUAUUACGCAGG, the “self-splicing fitness (ln)” value runs as follows: (30 °C) -1.54 ± 0.11; (37 °C) -2.14 ± 0.15.
Take CGUGAGCAAUAUUACGCGGA: the “self-splicing fitness (ln)” value (37 °C) was -1.62 ± 0.39.
Take CGUGAGCAAUAUUACGGCCG: the “self-splicing fitness (ln)” value (30 °C) is -1.92 ± 0.43.
